Source: patent US20150025225A1 (SHIONOGI, published 2015)

Tests used:
[1] = target: T1, rabbit EL-C2 tag (rabbit); assay: cell-based or functional assay
T1 chain: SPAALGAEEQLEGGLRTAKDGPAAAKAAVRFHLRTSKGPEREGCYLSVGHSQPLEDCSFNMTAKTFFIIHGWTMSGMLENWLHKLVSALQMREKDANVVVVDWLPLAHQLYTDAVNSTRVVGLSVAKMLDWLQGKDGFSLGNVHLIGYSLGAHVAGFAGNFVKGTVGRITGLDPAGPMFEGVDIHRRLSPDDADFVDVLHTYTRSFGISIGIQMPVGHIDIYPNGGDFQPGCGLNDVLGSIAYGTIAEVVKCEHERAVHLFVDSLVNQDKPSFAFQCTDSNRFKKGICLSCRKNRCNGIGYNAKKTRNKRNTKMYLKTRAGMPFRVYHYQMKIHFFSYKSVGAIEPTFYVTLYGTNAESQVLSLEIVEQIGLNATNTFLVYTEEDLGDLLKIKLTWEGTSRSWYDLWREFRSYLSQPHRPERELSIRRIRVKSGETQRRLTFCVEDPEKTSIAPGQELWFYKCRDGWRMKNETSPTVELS

[2] = target: T2, cynomolgus monkey EL-C2 tag (cynomolgus monkey, UniProt Q9Y5X9 21-500 (human entry), limits assumed); assay: cell-based or functional assay
T2 chain: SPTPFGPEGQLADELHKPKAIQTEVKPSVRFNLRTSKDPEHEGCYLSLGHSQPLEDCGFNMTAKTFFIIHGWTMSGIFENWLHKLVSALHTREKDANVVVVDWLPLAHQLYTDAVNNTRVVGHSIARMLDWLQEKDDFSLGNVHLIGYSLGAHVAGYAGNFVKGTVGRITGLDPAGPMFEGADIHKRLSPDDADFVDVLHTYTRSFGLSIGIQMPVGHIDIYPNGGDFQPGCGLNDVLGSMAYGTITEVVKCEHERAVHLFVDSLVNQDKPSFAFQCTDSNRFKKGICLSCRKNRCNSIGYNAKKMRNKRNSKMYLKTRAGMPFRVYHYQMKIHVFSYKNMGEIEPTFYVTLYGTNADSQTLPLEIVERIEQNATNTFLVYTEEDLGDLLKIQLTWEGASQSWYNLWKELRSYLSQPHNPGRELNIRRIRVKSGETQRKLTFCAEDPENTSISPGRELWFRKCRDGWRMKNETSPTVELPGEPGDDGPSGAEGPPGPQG

[3] = target: T3, Baboon EL-C2 tag (baboon, UniProt Q9Y5X9 21-500 (human entry), limits assumed); assay: cell-based or functional assay
T3 chain: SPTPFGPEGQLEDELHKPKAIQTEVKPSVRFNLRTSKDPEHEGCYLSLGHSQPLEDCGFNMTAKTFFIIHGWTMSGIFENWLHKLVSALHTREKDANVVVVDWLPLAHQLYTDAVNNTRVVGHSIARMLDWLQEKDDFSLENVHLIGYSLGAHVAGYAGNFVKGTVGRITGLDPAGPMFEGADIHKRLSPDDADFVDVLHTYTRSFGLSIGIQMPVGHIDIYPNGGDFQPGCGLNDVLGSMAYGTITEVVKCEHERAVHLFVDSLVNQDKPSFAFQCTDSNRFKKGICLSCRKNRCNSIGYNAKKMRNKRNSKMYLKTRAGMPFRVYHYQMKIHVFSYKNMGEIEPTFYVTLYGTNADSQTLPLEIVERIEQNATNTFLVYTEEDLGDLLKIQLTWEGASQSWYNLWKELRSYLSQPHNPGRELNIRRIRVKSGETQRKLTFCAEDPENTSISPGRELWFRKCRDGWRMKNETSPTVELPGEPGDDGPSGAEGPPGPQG

[4] = target: T4, human EL[331-459]-mouse EL-C2 tag (human/mouse chimera, UniProt Q9WVG5 21-500 (mouse entry)); assay: cell-based or functional assay
T4 chain: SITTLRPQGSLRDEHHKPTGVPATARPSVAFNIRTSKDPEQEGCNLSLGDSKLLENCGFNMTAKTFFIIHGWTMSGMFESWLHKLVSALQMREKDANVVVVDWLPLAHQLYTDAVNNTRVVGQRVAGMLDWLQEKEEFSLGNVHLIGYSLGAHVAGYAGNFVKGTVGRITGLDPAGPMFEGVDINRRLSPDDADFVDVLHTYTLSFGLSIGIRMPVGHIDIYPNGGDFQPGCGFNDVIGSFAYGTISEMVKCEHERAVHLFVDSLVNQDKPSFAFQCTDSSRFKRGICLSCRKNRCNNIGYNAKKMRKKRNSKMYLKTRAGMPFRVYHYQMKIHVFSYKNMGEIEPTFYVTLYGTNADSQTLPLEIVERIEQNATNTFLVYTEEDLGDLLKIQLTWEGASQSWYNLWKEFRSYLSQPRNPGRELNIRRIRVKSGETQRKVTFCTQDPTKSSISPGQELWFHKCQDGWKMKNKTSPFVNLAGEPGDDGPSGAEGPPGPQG

[5] = target: T2, cynomolgus monkey EL-C2 tag; assay: Biacore SPR; EL captured by anti-C2-tag antibody, antibody as analyte, bivalent fit; column head prints nM, kd/ka gives M
Method: (§1) The binding affinities of anti-EL antibodies were measured using Biacore. Anti-C2-tag antibody was immobilized on a sensor chip CM5 (GE HealthCare) using amine-coupling and baboon EL heparin extract or cynomolgus monkey heparin extract diluted with HBS-P (GE Healthcare) was added and EL were captured on the sensor chip. Then anti-EL antibodies diluted with HBS-P were added and the binding affinities were calculated by bivalent fitting of BIAevaluation software (FIG. 9A-G).

[6] = target: T3, Baboon EL-C2 tag; assay: as above
Method: as §1

[7] = target: T2, cynomolgus monkey EL-C2 tag; assay: ELISA-type titration, A450 against antibody concentration; protocol not described in the text
[8] = target: T2, cynomolgus monkey EL-C2 tag; assay: Biacore SPR; EL heparin extract captured by anti-C2-tag antibody on CM5, antibody as analyte, bivalent fit
Method: as §1

[9] = target: T3, Baboon EL-C2 tag; assay: as above
Method: as §1

[10] = target: T5, human EL-411-459 fragment (human); assay: sandwich ELISA with human EL fragment lysate, as Example 10
T5 construct: Used as HEK293 lysate
T5 chain: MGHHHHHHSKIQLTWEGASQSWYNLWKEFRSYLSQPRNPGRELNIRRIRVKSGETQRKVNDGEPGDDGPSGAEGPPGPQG

B1: 41H8 antibody (antibody, IgG1, V domains shown)
VH: QVTLKESGPGILQPSQTLSLTCSFSGFSLSTYGMGVGWIRQPSGKGLEWLAHIWWNENKYYNTDLKSRLTISKDTSNNQVFLKIASVDTADTATYYCARIGPGVPFDYWGQGTTITVSS
VL: DIQMTQSPSSLSASLGGKVTITCKASQDINKFIAWYQHKPGKGPRLLIHYTSTLQPGIPSRFNGSGSGRDYSFTISNLEPEDIATYYCLQYDILTWTFGGGTKLEIK
Neutralizing activity_IC50 [1]: 391 nM
Neutralizing activity_IC50 [2]: 5.9 nM
Neutralizing activity_IC50 [3]: 7.2 nM
Neutralizing activity_IC50 [4]: 15 nM
Kd [5]: 0.63 nM
Kd [6]: 2.6 nM
EC50 (read off the curve) [7]: ~7 ng/mL
koff [8]: 0.0001 s⁻¹
kon [8]: 160000 M⁻¹ s⁻¹
koff [9]: 0.00029 s⁻¹
kon [9]: 110000 M⁻¹ s⁻¹
binding result [10]: no binding
